B1: AB205-ADL1-D14 (conjugate)
heavy: QVQLQQSGSELMMPGASVKISCKATGYTFSNYWIQRPGHGLEWIGEILPGTGRTIYNEKFKGKATFTADISSNTVQMQLSSLTSEDSAVYYCARRDYYGNFYYAMDYWGQGTSVTVSSAKTTPPSVYPLAPGSAAQTNSMVTLGCLVKGYFPEPVTVTWNSGSLSSGVHTFPAVLQSDLYTLSSSVTVPSSTWPSETVTCNVAHPASSTKVDKKIVPRDCGCKPCICTVPEVSSVFIFPPKPKDVLTITLTPKVTCVVVDISKDDPEVQFSWFVDDVEVHTAQTQPREEQFNSTFRSVSELPIMHQDWLNGKEFKCRVNSAAFPAPIEKTISKTKGRPKAPQVYTIPPPKEQMAKDKVSLTCMITDFFPEDITVEWQWNGQPAENYKNTQPIMDTDGSYFVYSKLNVQKSNWEAGNTFTCSVLHEGLHNHHTEKSLSHSPG
light: DIQMTQSTSSLSASLGDRVTISCSASQGINNYLNWYQQKPDGTVELLIYYTSTLQSGVPSRFSGSGSGTDYSLTISNLEPEDIGTYYCQQYSKLPRTFGGGTKLEIKRADAAPTVSIFPPSSEQLTSGGASVVCFLNNFYPKDINVKWKIDGSERQNGVLNSWTDQDSKDSTYSMSSTLTLTKDEYERHNSYTCEATHKTSTSPIVKSFNRNEC
B2: AB205-ADL5-D25 (conjugate)
heavy: B1 heavy
light: B1 light
B3: AB205-ADL5-D15 (conjugate)
heavy: B1 heavy
light: B1 light
B4: AB205-ADL10-D1 (conjugate)
heavy: B1 heavy
light: B1 light
B5: AB205-ADL1-D4 (conjugate)
heavy: B1 heavy
light: B1 light
B6: AB205-ADL1-D1 (conjugate)
heavy: B1 heavy
light: B1 light
B7: AB205-ADL5-D19 (conjugate)
heavy: B1 heavy
light: B1 light

Tested on: MOLP8 cells
Experiment: Cell viability, CD138-expressing MOLP8
Type: cell-based
Settings: anti-CD138 ADC; for GI50: read-out: GI50 (nM) (ADC)
Procedure: HCC1954 (American Type Culture Collection (ATCC)) breast ductal carcinoma cells were plated at 2000 cells/well in flat bottom 96-well tissue culture plates (Corning) in a total volume of 90 μL tissue culture medium supplemented with 10% fetal bovine serum (ThermoFisher Scientific). Cells were treated with a 3-fold serial dilution of compound from 200 nM to 0.03 nM. Each concentration was tested in triplicate. At the time of treatment, a plate of untreated cells was evaluated using CellTiter-Glo®2.0 Luminescent Cell Viability Assay according to the manufacturer's recommendations (Promega; #G9241). CellTiter-Glo® 2.0 reagent was added to the medium, incubated, and assayed on an EnVision Multilabel Reader (PerkinElmer). Values represent time zero (TO). […] Percentage growth inhibition was calculated as: [(T144-T0)/(C-TO)]×100 for concentrations for which T144>/=TO or [(T144-T0)/T0]×100 for concentrations for which T144<TO. The dose response curve plots were generated using Prism 7 (Graphpad) and fit using nonlinear regression analysis and the log(inhibitor) versus response-variable slope (four parameters).

| Molecule | LD50 (nM) (ADC) | Rmin (%) (ADC) | GI50 |
| --- | --- | --- | --- |
| B1 | >400 nM | −74.008% | < 0.061 nM |
| B2 | 11.669 nM | −76.736% | < 0.061 nM |
| B3 | >400 nM | 2.419% | 0.268 nM |
| B4 | >400 nM | −25.099% | 0.08 nM |
| B5 | 0.535 nM | −99.306% | < 0.061 nM |
| B6 | 0.656 nM | −100.099% | > 0.061 nM |
| B7 | >400 nM | −46.23% | < 0.061 nM |

Source: patent US12172986B2, “Splicing modulator antibody-drug conjugates and methods of use” (EISAI R&D MANAGEMENT CO., LTD., priority 2018, dated 2024)
